Results published in patent US20250145733A1 (University of California, published 2025).

Experiments:
human ALPPL2-Fc [1] = biological target: T1, human ALPPL2-Fc (human, UniProt P10696 20-503); test: biolayer interferometry, tips loaded with human ALPPL2-Fc, 100 nM DSDbody as analyte
T1 construct: also called ALPG; not shown: Fc part not described
Method: (§1) FIG. 12. Binding of SYLY×CD3 DSDbody to human ALPP2 and ALPI measured by biolayer interferometry. Tips were loaded with either human ALPPL2-Fc or human ALPI-Fc, followed by an association step with 100 nM SYLY×CD3 DSDbody and then a dissociation step. Calculated affinites are shown in the graph. ND: not determined.
(§2) The DSDbody was also evaluated by biolayer interferometry for cross-species binding to both human and cynomolgus monkey CD3 epsilon chains.

[2] = biological target: T2, human ALPPL2 on tumor cells (M28, SKOV3, AsPC1) (human, UniProt P10696 20-503); test: flow cytometry on AsPC1 cells, anti-hexahistidine detection, curve fit of MFI; AsPC1 pancreatic cancer cells, flow cytometry
T2 construct: whole, on cells; also called ALPPL2 expressing tumor cells; M28 cells
T2 sequence (P10696 20-503): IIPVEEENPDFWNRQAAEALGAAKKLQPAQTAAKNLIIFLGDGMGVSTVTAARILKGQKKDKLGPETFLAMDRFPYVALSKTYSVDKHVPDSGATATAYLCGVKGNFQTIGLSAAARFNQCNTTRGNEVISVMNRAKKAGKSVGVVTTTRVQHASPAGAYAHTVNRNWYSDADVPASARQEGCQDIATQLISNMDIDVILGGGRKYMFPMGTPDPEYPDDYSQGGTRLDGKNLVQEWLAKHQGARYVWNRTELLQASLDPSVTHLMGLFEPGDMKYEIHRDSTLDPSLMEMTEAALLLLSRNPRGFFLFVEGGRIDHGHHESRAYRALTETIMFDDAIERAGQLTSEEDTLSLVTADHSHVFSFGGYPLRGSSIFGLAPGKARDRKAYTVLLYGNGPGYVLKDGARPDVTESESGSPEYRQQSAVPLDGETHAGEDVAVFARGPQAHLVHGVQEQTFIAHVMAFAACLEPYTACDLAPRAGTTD
Method: The bispecific (ALPPL2×CD3) SYLY DSDBody was incubated with AsPC1 cells at room temperature for 1 h, washed and further incubated with anti-tag (hexahistidine (SEQ ID NO: 102)) antibodies for detection by flow cytometry. […] See, FIG. 24.

ALPP on HEK293 cells = ALPP on HEK293 cells (UniProt P05187 23-506, limits assumed); test: cell-based or functional assay
ALPP on HEK293 cells, sequence (P05187 23-506 limits assumed): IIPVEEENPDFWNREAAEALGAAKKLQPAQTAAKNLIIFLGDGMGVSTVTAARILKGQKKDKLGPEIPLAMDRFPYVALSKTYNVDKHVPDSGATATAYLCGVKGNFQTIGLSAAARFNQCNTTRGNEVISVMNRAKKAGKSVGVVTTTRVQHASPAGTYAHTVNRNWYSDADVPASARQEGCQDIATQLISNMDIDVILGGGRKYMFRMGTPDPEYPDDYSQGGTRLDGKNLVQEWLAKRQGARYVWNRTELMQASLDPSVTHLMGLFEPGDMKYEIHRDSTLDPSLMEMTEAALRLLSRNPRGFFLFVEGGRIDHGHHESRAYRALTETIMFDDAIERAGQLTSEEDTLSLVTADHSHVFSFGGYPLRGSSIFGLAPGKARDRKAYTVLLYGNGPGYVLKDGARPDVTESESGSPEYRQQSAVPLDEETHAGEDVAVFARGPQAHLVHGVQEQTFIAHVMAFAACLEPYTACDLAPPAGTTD

[3] = biological target: T2, human ALPPL2 on tumor cells (M28, …); test: cell-based or functional assay
[4] = biological target: T2, human ALPPL2 on tumor cells (M28, …); test: apparent KD, flow cytometry on living SKOV3 cells
Method: FIG. 16. Binding of the SYLY-based bispecific (DSDbody) to living SKOV3 cells. SKOV3 cells were incubated with Fabs for 1 h at RT and binding was analyzed by flow cytometry. […] There is no binding by the control bispecific YSC10×CD3 DSDbody that is built on a non-binding isotype control antibody YSC10.
In addition to mesothelioma cells, binding of the SYLY-based bispecific ALPPL2×CD3 DSDbody was also studied on the ovarian cancer cell line SKOV3. […] No binding was detected by the control bispecific YSC10×CD3 that is built on a non-binding isotype control antibody YSC10. For comparison, a reference DSDbody constructed from the parental FYIA was also studied on SKOV3 cells using flow cytometry.

human ALPPL2-Fc [5] = biological target: T1, human ALPPL2-Fc; test: BLI; tips loaded with human ALPPL2-Fc, association with 100 nM SYLYxCD3 DSDbody, then dissociation
Method: as §1, §2

human CD3 epsilon [6] = biological target: T3, human CD3 epsilon (human, UniProt P07766 23-126); test: BLI; tips loaded with human CD3 epsilon, association with 100 nM SYLYxCD3 DSDbody, then dissociation
T3 sequence (P07766 23-126 limits assumed): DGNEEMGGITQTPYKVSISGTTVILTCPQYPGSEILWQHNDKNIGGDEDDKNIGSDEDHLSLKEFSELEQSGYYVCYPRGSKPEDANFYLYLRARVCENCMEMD
Method: (§3) FIG. 13. Binding of SYLY×CD3 DSDbody to human and cynomolgus monkey CD3 epsilon measured by biolayer interferometry. Tips were loaded with either human or cynomolgus monkey CD3 epsilon, followed by an association step with 100 nM SYLY×CD3 DSDbody and then a dissociation step.
as §2

[7] = biological target: T2, human ALPPL2 on tumor cells (M28, …); test: apparent KD, flow cytometry on living M28 cells; M28 mesothelioma cells, flow cytometry
[8] = biological target: T4, cynomolgus monkey CD3 epsilon (cynomolgus monkey, UniProt Q95LI5 22-117); test: BLI; tips loaded with cynomolgus monkey CD3 epsilon, association with 100 nM SYLYxCD3 DSDbody, then dissociation
T4 sequence (looked up): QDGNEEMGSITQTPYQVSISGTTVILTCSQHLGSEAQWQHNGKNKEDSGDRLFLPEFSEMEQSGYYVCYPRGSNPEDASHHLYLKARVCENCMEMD
Method: as §3, §2

human CD3 epsilon [9] = biological target: T3, human CD3 epsilon; test: biolayer interferometry, tips loaded with human CD3 epsilon, 100 nM DSDbody as analyte
Method: as §3, §2

human ALPI-Fc = biological target: T5, human ALPI-Fc (human, UniProt P09923 20-503); test: BLI; tips loaded with human ALPI-Fc, association with 100 nM SYLYxCD3 DSDbody, then dissociation
T5 construct: not shown: Fc part not described
T5 sequence (looked up): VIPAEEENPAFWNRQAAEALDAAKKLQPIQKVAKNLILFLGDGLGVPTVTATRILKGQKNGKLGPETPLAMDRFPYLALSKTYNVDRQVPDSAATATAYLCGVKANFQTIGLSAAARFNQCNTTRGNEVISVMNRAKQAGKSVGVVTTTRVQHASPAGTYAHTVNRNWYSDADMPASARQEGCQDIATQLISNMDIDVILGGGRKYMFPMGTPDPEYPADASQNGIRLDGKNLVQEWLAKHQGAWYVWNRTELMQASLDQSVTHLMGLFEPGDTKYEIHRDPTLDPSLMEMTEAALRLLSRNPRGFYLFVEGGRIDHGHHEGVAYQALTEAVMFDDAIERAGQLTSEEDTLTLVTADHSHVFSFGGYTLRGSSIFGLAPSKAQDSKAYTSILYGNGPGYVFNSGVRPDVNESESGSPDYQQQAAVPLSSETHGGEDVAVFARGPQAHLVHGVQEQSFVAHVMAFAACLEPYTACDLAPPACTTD
Method: as §1, §2

[10] = biological target: human ALPPL2 on tumor cells (M28, SKOV3, AsPC1) (human) (UniProt P10696); test: apparent KD, flow cytometry, Fab on living M28 cells
human ALPPL2 on tumor cells (M28, SKOV3, AsPC1) (human), sequence (P10696 20-503): as the sequence (P10696 20-503) above

[11] = biological target: T2, human ALPPL2 on tumor cells (M28, …); test: as above
Method: (§4) FIG. 2. Binding of FYIA, FYIA_germ, and FYIA_germopt Fabs to living M28 cells. M28 cells were incubated with Fabs for 1 h at RT and binding was analyzed by flow cytometry.
FIG. 4. Additional Fabs (FYIA_germ_SY and FYIA_germ_6-6) were also studied along with FYIA, FYIA_germ, and FYIA_germopt Fabs for binding to living M28 cells. M28 cells were incubated with Fabs for 1 h at RT and binding was analyzed by flow cytometry.

[12] = biological target: T6, human ALPI on HEK293 cells (human, UniProt P09923 20-503); test: flow cytometry on HEK293 cells stably transfected with human ALPI, 1 h at RT
T6 construct: whole, on cells; also called HEK293-ALPI cells
T6 sequence (looked up): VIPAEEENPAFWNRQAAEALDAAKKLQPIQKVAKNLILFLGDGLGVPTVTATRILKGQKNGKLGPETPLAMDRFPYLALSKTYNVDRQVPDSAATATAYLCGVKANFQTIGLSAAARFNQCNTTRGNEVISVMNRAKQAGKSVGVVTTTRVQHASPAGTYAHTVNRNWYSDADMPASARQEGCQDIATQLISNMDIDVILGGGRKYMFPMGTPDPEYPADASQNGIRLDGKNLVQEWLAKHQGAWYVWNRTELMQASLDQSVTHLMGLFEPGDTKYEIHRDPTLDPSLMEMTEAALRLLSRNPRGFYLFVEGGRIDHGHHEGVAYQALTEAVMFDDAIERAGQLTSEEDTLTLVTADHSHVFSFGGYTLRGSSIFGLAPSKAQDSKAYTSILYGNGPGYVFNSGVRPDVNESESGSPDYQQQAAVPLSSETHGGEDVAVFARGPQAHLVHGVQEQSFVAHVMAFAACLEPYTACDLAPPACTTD
Method: FIG. 3. Binding of FYIA, FYIA_germ, and FYIA_germopt Fabs to HEK293 cells stably transfected with human ALPI. HEK293-ALPI cells were incubated with Fabs for 1 h at RT and binding was analyzed by flow cytometry. No detectable binding was found. An ALPI-binding Fab, M25AD, was included in the study as a positive control.

human ALPPL2-Fc [13] = biological target: T1, human ALPPL2-Fc; test: biolayer interferometry, tips loaded with Fab, 5 nM human ALPPL2-Fc as analyte
Method: FIG. 1. Biolayer interferometry (BLI) measurements of the affinity of FYIA, FYIA_germ, FYIA_germ_6-6, and FYIA_germopt (aka SYLY) Fabs for human ALPPL2. Tips were loaded with Fabs, followed by an association step with 5 nM human ALPPL2-Fc then a dissociation step.

[14] = biological target: T2, human ALPPL2 on tumor cells (M28, …); test: cell binding study, monovalent Fab on M28 cells, flow cytometry
Method: as §4

T1 sequence (P10696 20-503): as the sequence (P10696 20-503) above

B1: SYLY-based bispecific ALPPL2×CD3 DSDbody (bispecific antibody)
chain 1: EVQLVESGGGLVQPGGSLRLSCAASGFTFNTYAMNWVRQAPGKGLEWVGRIRSKYNNYATYYADSVKDRFTISRDDSKNSLYLQMNSLTACDTAVYYCVRHGNFGNSYVSWFAYWGQGTLVTVSSGGGGSQSALTQPASVSGSPGQSITISCTGTSSDVGGYNYVSWYQQHPGKAPKLMIYDVTYRPSGVSNRFSGSKSGNTASLTISGLQAEDEADYYCSSYTVATTLVVFGGGTKLTVLASTKGPSVFPLAPSSKSTSGGTAALGCLVKDYFPEPVTVSWNSGALTSGVHTFPAVLQSSGLYSLSSVVTVPSSSLGTQTYICNVNHKPSNTKVDKKVEPKSCHHHHHH
chain 2: EVQLVESGGGLVQPGGSLRLSCAASGFTFSAYAMHWVRQAPGKGLEWVAVISYEGYNAYYADSVKGRFTISRDNSKNTLYLQMNSLTACDTAVYYCAKEGDYSRWAYDYWGRGTLVTVSSGGGGSDIQMTQSPSSLSASVGDRVTITCRSSTGAVTTSNYANWVQQKPGKAPKGLIGGTNKRAPGVPSRFSGSLIGDKATLTISSLQPEDFATYYCALWYSNLWVFGQGTKVEIKRTVAAPSVFIFPPSDEQLKSGTASVVCLLNNFYPREAKVQWKVDNALQSGNSQESVTEQDSKDSTYSLSSTLTLSKADYEKHKVYACEVTHQGLSSPVTKSFNRGEC
notes: Dually stabilized diabody: inter-chain disulfide link and CH1/CL pairing; Anti-CD3 arm is humanized SP34 (hSP34k2); also called SYLY×CD3 DSDbody; SYLY DSDbody
Human ALPPL2-Fc [1]
  Kd: ~0.2 nM
[2]
  Kd: 4.35 nM
ALPP on HEK293 cells
  EC50 of killing of HEK293-ALPP cells with human PBMC (E:T 10:1, 72h, Calcein AM): 0.0085 nM
[3]
  EC50 of killing of SKOV3 cells with human PBMC (E:T 10:1, 96h, Calcein AM): 0.0003 nM
[4]
  Kd: 0.19 nM
Human ALPPL2-Fc [5]
  Kd: 0.2 nM
Human CD3 epsilon [6]
  Kd: 25 nM
[7]
  Kd: 2.4 nM
[8]
  Kd: 18 nM
Human CD3 epsilon [9]
  Kd: 20 nM
Human ALPI-Fc
  binding result: no binding (tested: 100 nM)

B2: FYIA_germ_SY Fab (Fab, part only; not given: light variable domain, not tied by name, V domains shown, part only)
VH: EVQLVESGGGLVQPGGSLRLSCAASGFTFSAYAMHWVRQAPGKGLEWVAVISYEGYNAYYADSVKGRFTISRDNSKNTLYLQMNSLRAEDTAVYYCAKEGDYSRWAYDLWGRGTLVTVSS
[10]
  Kd: 1.27 nM

B3: FYIA_germ Fab (Fab, V domains shown)
VH: EVQLVESGGGLVQPGGSLRLSCAASGFTFSSYAMHWVRQAPGKGLEWVAVISYDGSNKYYADSVKGRFTISRDNSKNTLYLQMNSLRAEDTAVYYCAKEGDSSRWSYDLWGRGTLVTVSS
VL: QSALTQPASVSGSPGQSITISCTGTSSDVGGYNYVSWYQQHPGKAPKLMIYDVTNRPSGVSNRFSGSKSGNTASLTISGLQAEDEADYYCSSYTIASTLVVFGGGTKLTVL
notes: Tested as monovalent Fab
[11]
  Kd: 69.4 nM
[12]
  binding result: no binding (tested: 10000 nM)
Human ALPPL2-Fc [13]
  Kd: 13 nM

B4: FYIA_germopt Fab (Fab, V domains shown)
VH: EVQLVESGGGLVQPGGSLRLSCAASGFTFSAYAMHWVRQAPGKGLEWVAVISYEGYNAYYADSVKGRFTISRDNSKNTLYLQMNSLRAEDTAVYYCAKEGDYSRWAYDYWGRGTLVTVSS
VL: QSALTQPASVSGSPGQSITISCTGTSSDVGGYNYVSWYQQHPGKAPKLMIYDVTNYPSGVSNRFSGSKSGNTASLTISGLQAEDEADYYCSSYTVATTLVVFGGGTKLTVL
notes: Tested as monovalent Fab; also called SYLY
[11]
  Kd: 0.967 nM
[12]
  binding result: no binding (tested: 10000 nM)
Human ALPPL2-Fc [13]
  Kd: 0.19 nM
[14]
  fold improvement over the parental FYIA: > 30 fold
